Measurements as given in patent US7432061B2, “Assays for measuring matrix metalloproteinase activities” (BioZyme, Inc., priority 2002, dated 2008).
Primed or numbered codes have the meaning given here. The star is where a group is joined. Dabcyl″ = Dabcyl quencher at the N-terminus, CN(C)c1ccc(/N=N/c2ccc(C(=O)*)cc2)cc1; Flu = fluorescein label on the cysteine side chain; Dabcyl′ = CN(C)c1ccc(/N=N/c2ccc(C(=O)*)cc2)cc1; fluorescein = fluorescein label

Columns and labels:
Assay type in all cases: biochemical
collagenase 3 [1] = biological target: T1, collagenase 3 (Homo sapiens, UniProt P45452); assay: kcat/Km of fluorescence peptide substrates; details: for Col-3 Specificity Constant: fluorescence substrate, + Gel = PRIONEX GELATIN 1:250
stromelysin 1 [2] = biological target: T2, stromelysin 1 (Homo sapiens, UniProt P08254); assay: kcat/Km of fluorescence peptide substrates; details: for reduction of substrate selectivity for stromelysin 1 relative to FlSb1: fluorescence substrates; for Strom1 Selectivity v Col-3: fluorescence substrate, + Gel = PRIONEX GELATIN 1:250
T2 sequence (P08254 100-477): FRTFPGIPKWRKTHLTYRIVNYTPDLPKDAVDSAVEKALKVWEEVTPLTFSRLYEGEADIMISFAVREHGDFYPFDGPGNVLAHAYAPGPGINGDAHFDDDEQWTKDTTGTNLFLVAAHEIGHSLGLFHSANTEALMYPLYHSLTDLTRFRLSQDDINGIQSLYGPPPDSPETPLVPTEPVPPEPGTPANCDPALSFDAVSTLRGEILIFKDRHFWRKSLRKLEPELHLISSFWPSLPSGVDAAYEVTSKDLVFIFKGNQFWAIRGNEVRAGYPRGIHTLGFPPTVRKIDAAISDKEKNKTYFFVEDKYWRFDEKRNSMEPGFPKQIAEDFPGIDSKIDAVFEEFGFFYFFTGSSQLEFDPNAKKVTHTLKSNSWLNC

collagenase 3 [3] = biological target: T1, collagenase 3; assay: Inhibition with type II collagen, FlSub3 cleavage; details: Time Period 0.85 to 2.10 Hours; 20 uM FlSub3 with bovine type II collagen
Method: In a 96 well plate, collagenase 3 (0.013 nM), collagenase 1 (1.25 nM), stromelysin 1 (0.8 nM), gelatinase A (0.025 nM), or gelatinase B (0.008 nM) were reacted with 20 uM FlSub3 in standard assay buffer in the presence of varying concentrations of bovine type II collagen (0.18-44 ug/ml). The type II collagen, a 1 mg/ml stock in 0.5M acetic acid, was transferred into assay buffer by passing the material through a biospin P6 column from Amersham. The reaction was initiated by addition of substrate to enzyme containing either buffer or an appropriate amount of type II collagen. Data points were taken every 15 min over a period of 15 hours using an excitation and emission wavelength of 350 and 485 nm respectively. The usable data (1-6 hours), was taken and the percent inhibition by type II collagen was calculated for each enzyme and plotted as a function of inhibitor concentration and time in the assay. It should be noted that the percent inhibition varies with time as the bovine substrate is consumed during the reaction course.

gelatinase B = gelatinase B (Homo sapiens, UniProt P14780); assay: Cleavage of biglycan and type IV collagen by MMPs (gel); details: equal concentration of enzyme as col-3
gelatinase B, sequence (P14780 94-707): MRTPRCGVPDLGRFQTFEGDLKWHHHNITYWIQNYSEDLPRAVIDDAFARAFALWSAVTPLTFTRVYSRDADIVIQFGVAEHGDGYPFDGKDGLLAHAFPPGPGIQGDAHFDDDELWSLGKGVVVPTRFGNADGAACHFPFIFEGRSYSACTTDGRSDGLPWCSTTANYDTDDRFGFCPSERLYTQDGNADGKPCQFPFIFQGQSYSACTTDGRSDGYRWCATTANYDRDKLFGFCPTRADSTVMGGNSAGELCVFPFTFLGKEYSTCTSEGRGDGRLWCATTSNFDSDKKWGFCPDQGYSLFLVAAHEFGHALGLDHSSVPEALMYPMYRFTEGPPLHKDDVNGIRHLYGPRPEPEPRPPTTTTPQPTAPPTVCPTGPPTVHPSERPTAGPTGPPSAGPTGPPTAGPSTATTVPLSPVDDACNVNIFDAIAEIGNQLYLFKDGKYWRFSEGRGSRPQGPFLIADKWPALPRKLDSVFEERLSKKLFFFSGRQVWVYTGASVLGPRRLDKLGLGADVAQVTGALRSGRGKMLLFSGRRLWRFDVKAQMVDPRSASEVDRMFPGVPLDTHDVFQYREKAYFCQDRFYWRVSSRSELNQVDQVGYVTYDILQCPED
Method: (§1) Reactions were carried out on a small scale to optimize the enzyme to full length protein ratios. For biglycan, optimum results were obtained with a ratio of 1:100 (20-40 nM col-3 and 4.3 μM biglycan in a 10 μl reaction). For type IV collagen, best results were found with a ratio of 1:50 (28 nM col-3 and 2 μM type IV collagen). For comparison with the other MMPs, an equal concentration of enzyme was used.

collagenase 1 = biological target: T3, collagenase 1 (Homo sapiens, UniProt P03956); assay: as above; details: equal concentration of enzyme as col-3
T3 sequence (P03956 100-469): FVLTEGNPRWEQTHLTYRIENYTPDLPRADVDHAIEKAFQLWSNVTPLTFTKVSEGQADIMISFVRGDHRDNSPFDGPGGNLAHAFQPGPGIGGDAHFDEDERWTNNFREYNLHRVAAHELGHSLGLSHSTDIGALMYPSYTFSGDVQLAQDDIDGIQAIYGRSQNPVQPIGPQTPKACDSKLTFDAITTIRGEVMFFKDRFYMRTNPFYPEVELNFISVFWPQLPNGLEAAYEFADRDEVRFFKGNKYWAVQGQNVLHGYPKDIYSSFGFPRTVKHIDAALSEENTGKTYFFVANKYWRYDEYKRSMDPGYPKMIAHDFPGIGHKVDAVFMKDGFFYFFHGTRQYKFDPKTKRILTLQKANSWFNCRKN
Method: as §1

gelatinase A = biological target: T4, gelatinase A (Homo sapiens, UniProt P08253); assay: as above; details: earlier experiment
T4 sequence (P08253 110-660): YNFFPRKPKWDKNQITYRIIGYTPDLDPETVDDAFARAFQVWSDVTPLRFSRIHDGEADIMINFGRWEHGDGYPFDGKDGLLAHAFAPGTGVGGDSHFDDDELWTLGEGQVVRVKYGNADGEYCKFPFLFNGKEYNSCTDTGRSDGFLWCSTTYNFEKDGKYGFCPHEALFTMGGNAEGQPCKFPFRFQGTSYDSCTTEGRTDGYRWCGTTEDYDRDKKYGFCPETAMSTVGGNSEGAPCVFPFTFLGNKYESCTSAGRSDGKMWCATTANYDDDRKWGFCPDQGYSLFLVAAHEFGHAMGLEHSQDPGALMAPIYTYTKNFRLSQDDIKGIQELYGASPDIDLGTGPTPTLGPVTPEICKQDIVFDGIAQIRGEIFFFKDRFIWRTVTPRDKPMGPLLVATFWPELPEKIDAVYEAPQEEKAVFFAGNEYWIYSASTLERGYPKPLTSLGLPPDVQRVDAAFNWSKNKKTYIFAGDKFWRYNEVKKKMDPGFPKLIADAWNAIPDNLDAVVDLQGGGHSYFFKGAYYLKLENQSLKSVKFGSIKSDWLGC
Method: as §1

stromelysin 1 [4] = biological target: T2, stromelysin 1; assay: as above; details: equal concentration of enzyme as col-3
Method: as §1

Molecule: Dab-SYPSGIHLC(Flu)LQR-NH2 ({Dabcyl″}-SYPSGIHLC(Flu)LQR-NH2) [FlSb2, fluorescence substrate based on the sulfate transporter]
- less sensitive for collagenase 3 compared to the consensus substrate (collagenase 3 [1]; compared to FlSb1): 100 fold
- selectivity compared to FlSb1 (collagenase 3 [1]; kcat/Km against the five MMPs): less selective

Molecule: Dabcyl-GPHPFRGC(Flu)-NH2 ({Dabcyl″}-GPHPFRGC(Flu)-NH2) [FISb4]
- reduction of substrate selectivity for stromelysin 1 relative to FlSb1 (stromelysin 1 [2]): approximately 10 fold
- Col-3 Specificity Constant (collagenase 3 [1]): 3.27E+04 1/sM

Molecule: Dabcyl-GPLGMRGC(Fluorescein)-NH2 ({Dabcyl′}-GPLGMRGC(fluorescein)-NH2) [FISb1]
- Strom1 Selectivity v Col-3 (stromelysin 1 [2]): 707.5 unitless
- Strom1 Selectivity v Col-3 (stromelysin 1 [2]; listed as Fluorescence Substrate 1): 3665 unitless

Molecule: Dabcyl-GPVNLHGC(Flu)-NH2 ({Dabcyl″}-GPVNLHGC(Flu)-NH2) [FISb3]
- Col-3 Specificity Constant (collagenase 3 [3]): 1.11E+06 1/sM
- reduction of substrate selectivity for stromelysin 1 relative to FlSb1 (stromelysin 1 [2]): approximately 10 fold
- Col-3 Specificity Constant (collagenase 3 [1]): 4.21E+05 1/sM

Molecule: type IV collagen: full length protein digested with collagenase 3 and other MMPs
- cleavage of full length protein by gelatinase B (gelatinase B): processed
- cleavage of full length protein by collagenase 1 (collagenase 1): processed
- cleavage of full length protein by gelatinase A (gelatinase A): No detectable cleavage

B1: biglycan: proteoglycan, full length protein digested with collagenase 3 and other MMPs (protein, UniProt P21810 38-368, looked up)
Biglycan: DEEASGADTSGVLDPDSVTPTYSAMCPFGCHCHLRVVQCSDLGLKSVPKEISPDTTLLDLQNNDISELRKDDFKGLQHLYALVLVNNKISKIHEKAFSPLRKLQKLYISKNHLVEIPPNLPSSLVELRIHDNRIRKVPKGVFSGLRNMNCIEMGGNPLENSGFEPGAFDGLKLNYLRISEAKLTGIPKDLPETLNELHLDHNKIQAIELEDLLRYSKLYRLGLGHNQIRMIENGSLSFLPTLRELHLDNNKLARVPSGLPDLKLLQVVYLHSNNITKVGVNDFCPMGFGVKRAYYNGISLFNNPVPYWEVQPATFRCVTDRLAIQFGNYKK
- cleavage of full length protein by gelatinase B (gelatinase B): able to degrade
- cleavage of full length protein by stromelysin 1 (stromelysin 1 [4]): able to degrade
